# B1: human-mouse chimeric antibody UM03-L4 (antibody, human IgG4 S228P, kappa, V domains shown)
# VH: EVKLVESGGDLVQPGGSRKLSCAASGFTFSDYGMAWIRQAPGKGPEWIAFITNLASSIYYADTVTGRFTISRENAKNTLYLEMSSLRSEDTAMYYCARAGDYRSFPYWGQGTPVTVSA
# VL: EILLTQSPAIIAASPGEKVTITCSASSSVNYVNWYQQKPGSSPKIWIYGISNLASGVPARFSGSGSGTSFSFTINSMEAEDVATYYCQQRSTFPPYTFGGGTKLEIKR
# notes: expressed in HEK293 cells
# B2: humanized antibody UM03-C4 (antibody, human IgG4 S228P, kappa, V domains shown)
# VH: QVQLVESGGGVVQPGGSLRLSCAASGFTFSDYGMAWIRQAPGKGPEWIAFITNLASSIYYADTVTGRFTISRDNSKNTLYLQMNSLRAEDTAVYYCARAGDYRSFPYWGQGTLVTVSA
# VL: EIVLTQSPATLSLSPGERATLSCSASSSVNYVNWYQQKPGQAPRILIYGISNLASGVPARFSGSGSGTDFTLTISSLEPEDFAVYYCQQRSTFPPYTFGQGTKLEIKR
# notes: expressed in HEK293 cells
# Columns and labels:
# [1] = target: monkey CD47 on monkey erythrocytes (monkey); test: flow cytometry on monkey erythrocytes
# human CD47 on cells [2] = target: T1, human CD47 on cells (human, UniProt Q08722 19-323); test: flow cytometry on A2780 cells
# T1 construct: whole, on cells; also called CHO-CD47 cells; MKN-45
# Experimental: (§1) First, the inventors verified the expression of CD47 in the above 3 cell lines using flow cytometry. Serially diluted solutions of anti-human CD47 detection antibody (eBioscience, 17-0479-42) and APC isotype (eBioscience, 17-4714-41), anti-huIgG 633 (life technologies, A21091) were prepared with PBS to formulate 2× working solutions at final concentrations. The three tumor cells were collected, washed with PBS once, counted, and diluted to 4×10⁶/mL cell suspension. For each cell line, 50 μL of the antibody working solution was added into 50 μL of cell suspension, and the mixture was incubated at 4° C. in the dark for 30 min. After washing twice with PBS, a corresponding fluorescence-labeled secondary antibody (anti-huIgG 633) was added, and the mixture was incubated for 30 min at 4° C. in the dark, washed twice with PBS, and suspended with 400 μL of FACS buffer. The binding of the antibodies to the cells was detected by a flow cytometer.
# (§2) The method is the same as above.
# [3] = target: monkey CD47 on monkey erythrocytes (monkey, UniProt A0A2K5X4H8 19-305); test: flow cytometry on monkey erythrocytes
# human CD47 on cells [4] = target: T1, human CD47 on cells; test: flow cytometry on MKN-45 cells
# Experimental: as §1, §2
# human CD47 on cells [5] = target: T1, human CD47 on cells; test: flow cytometry on SW620 cells
# Experimental: as §1, §2
# human CD47 protein [6] = target: T2, human CD47 protein (human, UniProt Q08722 19-139, limits assumed); test: ELISA, plate coated with human CD47 protein
# Experimental: The next day, the plate was washed 3 times with 300 μL of PBST (Tween 20: 0.5‰), then blocked with 5% BSA/PBS at 100 μL/well for 2 h, and shaken at room temperature. The plate was then washed with 300 μL of PBST 3 times. The antibody samples prepared with PBS were serially diluted, added to a 96-well plate at 100 μL/well and shaken for 1 h at room temperature. The plate was then washed with 300 μL of PBST 3 times. A secondary goat anti-mouse IgG HRP or goat anti-human IgG HRP solution was prepared, added to a 96-well plate at 100 μL/well and shaken for 1 h at room temperature. The plate was then washed with 300 μL of PBST 4 times. TMB was added at 100 μL/well for 20 min of chromogenesis. The chromogenesis was terminated by adding 0.6 N H₂SO₄ at 100 μL/well and the OD_{450 nm} was detected.
# human CD47 on cells [7] = target: T1, human CD47 on cells; test: flow cytometry, inhibition of SIRPα-mFc binding to CHO-CD47 cells
# human CD47 on cells [8] = target: T1, human CD47 on cells; test: flow cytometry on human erythrocytes; human erythrocytes, flow cytometry
# Experimental: Erythrocytes were first isolated from the peripheral blood of volunteers and suspended in physiological saline to obtain an erythrocyte suspension with a concentration of 2%. Serially diluted antibody solutions were prepared with PBS to formulate 2× working solutions at final concentrations. 50 μL of the antibody working solution was added into 50 μL of erythrocyte suspension, and the mixture was incubated at 4° C. in the dark for 60 min. After washing twice with PBS, a corresponding fluorescence-labeled secondary antibody was added, and the mixture was incubated for 30 min at 4° C. in the dark, washed twice with PBS, and suspended with 400 μL of FACS buffer. The binding of the antibodies to the erythrocytes was detected by a flow cytometer. For erythrocyte agglutination detection, 50 μL of the antibody working solution was also added into 50 μL of erythrocyte suspension. The mixture was placed on a 96-well round bottom plate, let stand at room temperature for 2 h, observed and photographed.
# human CD47 protein [9] = target: T2, human CD47 protein; test: SPR (Biacore T200), antibody captured on protein A chip, CD47 protein in solution
# Experimental: The affinity of antigen-antibody binding was measured by SPR (surface plasma resonance). […] During the dissociation phase, elution was continued for 360 s with HBS-EP buffer. The binding of CD47 to the antibody on the sensor chip was quantitatively determined using Biacore T200 (GE Healthcare).
# monkey CD47 on monkey erythrocytes (monkey), sequence (A0A2K5 entry or part of it limits assumed): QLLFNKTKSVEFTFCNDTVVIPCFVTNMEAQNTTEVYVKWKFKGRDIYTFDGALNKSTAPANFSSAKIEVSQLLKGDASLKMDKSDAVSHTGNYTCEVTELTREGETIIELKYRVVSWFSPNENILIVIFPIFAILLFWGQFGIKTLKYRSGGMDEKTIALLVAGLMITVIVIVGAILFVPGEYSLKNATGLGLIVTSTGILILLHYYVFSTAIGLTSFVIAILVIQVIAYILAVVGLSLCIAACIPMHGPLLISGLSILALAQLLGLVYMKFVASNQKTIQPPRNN
# monkey CD47 on monkey erythrocytes, sequence (A0A2K5X4H8 entry or part of it limits assumed): as the sequence (A0A2K5 entry or part of it limits assumed) above
Molecule,EC50 [1] [µg/mL],plateau [1],EC50 (human CD47 on cells [2]) [µg/mL],EC50 [3] [µg/mL],EC50 (human CD47 on cells [4]) [µg/mL],EC50 (human CD47 on cells [5]) [µg/mL],EC50 (human CD47 protein [6]) [µg/mL],IC50 (human CD47 on cells [7]) [µg/mL],EC50 (human CD47 on cells [8]) [µg/mL],Kd (human CD47 protein [9]) [nM],koff (human CD47 protein [9]) [s⁻¹],kon (human CD47 protein [9]) [M⁻¹ s⁻¹]
positive control antibody Hu5F9,0.586,392,–,–,–,–,–,–,–,–,–,–
B1,–,–,0.142,0.907,0.381,0.216,0.25,3.38,1.21,–,–,–
B2,–,–,0.119,–,0.354,0.126,0.169,2.4,0.93,0.19,0.000193,1.02e+06

# — patent US20230167192A1 (SUZHOU ZELGEN BIOPHARMACEUTICALS, published 2023)
